In article PMC6351828 one finds ratio to parent and response data, which are given here for four molecules.

The target of one experiment is LC3‐GFP, Q9GZQ8. The experiment is described as follows: co-immunoprecipitation (anti-GFP agarose) with quantified immunoblot. The conditions noted are these: chain shown with the change; HeLa cells co-transfected with LC3-GFP and DISC1-Flag constructs; parent: 1.0; read off a plot. Background: A western blot detects proteins with antibodies after separation by electrophoresis.

For experiment [1], the target named is Purified recombinant LC3 protein, Q9GZQ8. Put plainly: ELISA. As to conditions: chain shown with the change, read off a plot.

B1: Disrupted‐in‐schizophrenia‐1 (DISC1)‐Flag, wild type, Q9NRI5 F210A; S211A; F212A; I213A (protein)
chain: MPGGGPQGAPAAAGGGGVSHRAGSRDCLPPAACFRRRRLARRPGYMRSSTGPGIGFLSPAVGTLFRFPGGVSGEESHHSESRARQCGLDSRGLLVRSPVSKSAAAPTVTSVRGTSAHFGIQLRGGTRLPDRLSWPCGPGSAGWQQEFAAMDSSETLDASWEAACSDGARRVRAAGSLPSAELSSNSCSPGCGPEVPPTPPGSHSAFTSSAAAARLSLGSAGERGEAEGCPPSREAESHCQSPQEMGAKAASLDGPHEDPRCLSRPFSLLATRVSADLAQAARNSSRPERDMHSLPDMDPGSSSSLDPSLAGCGGDGSSGSGDAHSWDTLLRKWEPVLRDCLLRNRRQMEVISLRLKLQKLQEDAVENDDYDKAETLQQRLEDLEQEKISLHFQLPSRQPALSSFLGHLAAQVQAALRRGATQQASGDDTHTPLRMEPRLLEPTAQDSLHVSITRRDWLLQEKQQLQKEIEALQARMFVLEAKDQQLRREIEEQEQQLQWQGCDLTPLVGQLSLGQLQEVSKALQDTLASAGQIPFHAEPPETIRSLQERIKSLNLSLKEITTKVCMSEKFCSTLRKKVNDIETQLPALLEAKMHAISGNHFWTAKDLTEEIRSLTSEREGLEGLLSKLLVLSSRNVKKLGSVKEDYNRLRREVEHQETAYETSVKENTMKYMETLKNKLCSCKCPLLGKVWEADLEACRLLIQSLQLQEARGSLSVEDERQMDDLEGAAPPIPPRLHSEDKRKTPLKVLEEWKTHLIPSLHCAGGEQKEESYILSAELGEKCEDIGKKLLYLEDQLHTAIHSHDEDLIQSLRRELQMVKETLQAMILQLQPAKEAGEREAAASCMTAGVHEAQA
On to B1, for which the ratio to parent with LC3‐GFP, Q9GZQ8 was found to be 0.21.

B2: Disrupted‐in‐schizophrenia‐1 (DISC1)‐Flag, wild type, Q9NRI5 W327A; D328A; T329A; L330A (protein)
chain: MPGGGPQGAPAAAGGGGVSHRAGSRDCLPPAACFRRRRLARRPGYMRSSTGPGIGFLSPAVGTLFRFPGGVSGEESHHSESRARQCGLDSRGLLVRSPVSKSAAAPTVTSVRGTSAHFGIQLRGGTRLPDRLSWPCGPGSAGWQQEFAAMDSSETLDASWEAACSDGARRVRAAGSLPSAELSSNSCSPGCGPEVPPTPPGSHSAFTSSFSFIRLSLGSAGERGEAEGCPPSREAESHCQSPQEMGAKAASLDGPHEDPRCLSRPFSLLATRVSADLAQAARNSSRPERDMHSLPDMDPGSSSSLDPSLAGCGGDGSSGSGDAHSAAAALRKWEPVLRDCLLRNRRQMEVISLRLKLQKLQEDAVENDDYDKAETLQQRLEDLEQEKISLHFQLPSRQPALSSFLGHLAAQVQAALRRGATQQASGDDTHTPLRMEPRLLEPTAQDSLHVSITRRDWLLQEKQQLQKEIEALQARMFVLEAKDQQLRREIEEQEQQLQWQGCDLTPLVGQLSLGQLQEVSKALQDTLASAGQIPFHAEPPETIRSLQERIKSLNLSLKEITTKVCMSEKFCSTLRKKVNDIETQLPALLEAKMHAISGNHFWTAKDLTEEIRSLTSEREGLEGLLSKLLVLSSRNVKKLGSVKEDYNRLRREVEHQETAYETSVKENTMKYMETLKNKLCSCKCPLLGKVWEADLEACRLLIQSLQLQEARGSLSVEDERQMDDLEGAAPPIPPRLHSEDKRKTPLKVLEEWKTHLIPSLHCAGGEQKEESYILSAELGEKCEDIGKKLLYLEDQLHTAIHSHDEDLIQSLRRELQMVKETLQAMILQLQPAKEAGEREAAASCMTAGVHEAQA
Regarding B2, the ratio to parent in the experiment with LC3‐GFP, Q9GZQ8 stood at 0.9.

B3: Disrupted‐in‐schizophrenia‐1 (DISC1)‐Flag, wild type, Q9NRI5 Y646A; N647A; R648A; L649A (protein)
chain: MPGGGPQGAPAAAGGGGVSHRAGSRDCLPPAACFRRRRLARRPGYMRSSTGPGIGFLSPAVGTLFRFPGGVSGEESHHSESRARQCGLDSRGLLVRSPVSKSAAAPTVTSVRGTSAHFGIQLRGGTRLPDRLSWPCGPGSAGWQQEFAAMDSSETLDASWEAACSDGARRVRAAGSLPSAELSSNSCSPGCGPEVPPTPPGSHSAFTSSFSFIRLSLGSAGERGEAEGCPPSREAESHCQSPQEMGAKAASLDGPHEDPRCLSRPFSLLATRVSADLAQAARNSSRPERDMHSLPDMDPGSSSSLDPSLAGCGGDGSSGSGDAHSWDTLLRKWEPVLRDCLLRNRRQMEVISLRLKLQKLQEDAVENDDYDKAETLQQRLEDLEQEKISLHFQLPSRQPALSSFLGHLAAQVQAALRRGATQQASGDDTHTPLRMEPRLLEPTAQDSLHVSITRRDWLLQEKQQLQKEIEALQARMFVLEAKDQQLRREIEEQEQQLQWQGCDLTPLVGQLSLGQLQEVSKALQDTLASAGQIPFHAEPPETIRSLQERIKSLNLSLKEITTKVCMSEKFCSTLRKKVNDIETQLPALLEAKMHAISGNHFWTAKDLTEEIRSLTSEREGLEGLLSKLLVLSSRNVKKLGSVKEDAAAARREVEHQETAYETSVKENTMKYMETLKNKLCSCKCPLLGKVWEADLEACRLLIQSLQLQEARGSLSVEDERQMDDLEGAAPPIPPRLHSEDKRKTPLKVLEEWKTHLIPSLHCAGGEQKEESYILSAELGEKCEDIGKKLLYLEDQLHTAIHSHDEDLIQSLRRELQMVKETLQAMILQLQPAKEAGEREAAASCMTAGVHEAQA
For B3, the ratio to parent with LC3‐GFP, Q9GZQ8 is 1.1.
As to PGSHSAFTSSAAAARLSLGS [DISC1 FSFI peptide (a.a.200–219) F210A; S211A; F212A; I213A], the response in experiment [1] (LC3B 10 nM, parent: est. 0.68) was 0.1 OD (450 nm); in experiment [1] (LC3B 50 nM, parent: est. 1.3), 0.12 OD (450 nm); in experiment [1] (LC3B 100 nM, parent: est. 2.4), 0.12 OD (450 nm).
